Patent US8110402B2, “Metal abstraction peptide (MAP) tag and associated methods” (University of Kansas, priority 2008, dated 2012)
Changes are numbered by the printed parent chain. Names and notes keep the numbering of the source. Where a SMILES comes first, the peptide text is derived from it. [ ]: non-standard residue; d: D form.

What was measured:
[1] = UV-Vis absorption spectroscopy of Ni coordination; type: binding
Description: UV-Vis absorption spectra were used to measure the concentration of the PRL-1 protein. Briefly, the concentrations of purified PRL-1 analogs were measured at 280 nm and calculated using an extinction coefficient of 19420 M^−1 cm^−1. Because of possible metal-protein absorption interferences in the high 200 nm region, the validity of the UV-Vis quantification method was confirmed by the Bradford method. Spectra of PRL-1 analogs at concentrations of 10, 5, 2.5, and 1.25 mg/mL were collected on a Cary 100 UV-Vis spectrophotometer from 800 to 200 nm. […] The resulting spectra were resolved and peak positions were evaluated using GRAMS/AI 7.00 software. Three methods were aimed at metal displacement. In the first, PRL-1-WT (e.g., wild type) samples were reduced using 20 mM β-mercaptoethanol (BME), and imidazole was added to a concentration of 10 mM. For […] protein samples, this corresponds to […] solution excess of BME to compete with the two C-terminal cysteine thiols and a 200-fold solution excess of imidazole to compete with the single C-terminal histidine imidazole side chain. New baselines were taken and the spectra recalculated. In the second method, baselines were recalculated for buffer containing 100 μM EDTA, and the spectrum for the PRL-1-WT sample that was exchanged ten million fold in 100 μM EDTA was recorded. […]

[2] = ICP-MS of metal bound to purified PRL-1 variants (Ni); type: binding; settings: for Ni bound (ICP-MS): PRL-1 variants analyzed in parallel, Ni-IMAC purified
Description: (§1) ICP-MS was used to characterize the bound metal. Briefly, purified protein samples were digested in concentrated nitric acid in PFA microcentrifuge tubes (Savillex, #s 7240, 7241) at 68±1° C. for 16.5±0.7 hours. Based on protein quantification prior to digestion, the sample was then diluted to 1.5 μM in 20 mM ammonium bicarbonate, pH 8.2, filtered through a 0.2 μm nylon filter, and injected into a VG Elemental VGII+XS Inductively-Coupled Plasma-Mass Spectrometer fitted with a microconcentric nebulizer. A minimum of two separately prepared samples were analyzed for each protein variant. Each sample was scanned twice and standards were run before, between, and after each sample scan. Drift was monitored during washes between scans of both sample and standard injections.
To investigate our hypothesis that the chromophore arises from protein abstraction of the metal from the charged IMAC matrix, samples were subjected to ICP-MS for semi-quantitative analysis. As extensive washing is used to remove background metals, the values obtained from this method inherently underestimate the amount of metal bound, but can be used to assess the relative affinity of different metals for the protein. Additionally, to identify an endogenous metal ligand that may have been bound to PRL-1 during expression in the cells, ICP-MS was used to look for the presence of a transition metal from the first two rows in the periodic table as well as other common biologically relevant metals. […] On average 500 μM Ni-purified protein samples were digested in nitric acid for 16 h at 70° C. were determined to contain approximately 180 μM Ni, yielding a Ni to protein stoichiometry of 1:2.7+/−0.7. Zn was also detected in the Ni-purified samples at approximately 60 μM. […] Because ICP-MS analysis is conducted in a flow of Ar and the most abundant isotope of Ar has the same mass as Ca, Ca binding cannot be determined from the primary mass signal. Nonetheless, because a much higher amount of Ca was present in the cell culture media compared to Zn and yet the ICP-MS signal corresponds largely to zinc, the protein is unlikely to bind calcium.

[3] = Metal displacement from Ni-purified PRL-1 followed by UV-Vis (BME, imidazole, EDTA, guanidinium hydrochloride/heat); type: physicochemical
Description: UV-Vis absorption spectra were used to measure the concentration of the PRL-1 protein. Briefly, the concentrations of purified PRL-1 analogs were measured at 280 nm and calculated using an extinction coefficient of 19420 M^−1 cm^−1. Because of possible metal-protein absorption interferences in the high 200 nm region, the validity of the UV-Vis quantification method was confirmed by the Bradford method. Spectra of PRL-1 analogs at concentrations of 10, 5, 2.5, and 1.25 mg/mL were collected on a Cary 100 UV-Vis spectrophotometer from 800 to 200 nm. […] The resulting spectra were resolved and peak positions were evaluated using GRAMS/AI 7.00 software. Three methods were aimed at metal displacement. In the first, PRL-1-WT (e.g., wild type) samples were reduced using 20 mM β-mercaptoethanol (BME), and imidazole was added to a concentration of 10 mM. For 0.5 mM protein samples, this corresponds to 400-fold solution excess of BME to compete with the two C-terminal cysteine thiols and a 200-fold solution excess of imidazole to compete with the single C-terminal histidine imidazole side chain. New baselines were taken and the spectra recalculated. In the second method, baselines were recalculated for buffer containing 100 μM EDTA, and the spectrum for the PRL-1-WT sample that was exchanged ten million fold in 100 μM EDTA was recorded. Finally, 10 mg/mL protein samples were denatured in 5.6 M guanidinium hydrochloride and heated to 90° C., new baselines were taken, and the spectra were collected at 0, 2, 4 and 6 hrs.

[4] = ICP-MS of metal bound to purified PRL-1 (Zn); type: binding
Description: as §1
To investigate our hypothesis that the chromophore arises from protein abstraction of the metal from the charged IMAC matrix, samples were subjected to ICP-MS for semi-quantitative analysis. […] On average 500 μM Ni-purified protein samples were digested in nitric acid for 16 h at 70° C. were determined to contain approximately 180 μM Ni, yielding a Ni to protein stoichiometry of 1:2.7+/−0.7. Zn was also detected in the Ni-purified samples at approximately 60 μM. […]

[5] = Solubility of metal-free protein; type: physicochemical; settings: metal-free (apo) protein

NC(=O)C[C@@H](N)C(=O)N[C@H](CS)C(=O)N[C@H](CS)C(=O)O [NCC] (H-[dN]-[dC]-[dC]-OH)
absorbance spectrum after incubation with metal-charged IMAC resin ([1]; synthetic tripeptides): mimics that observed for the peptide-metal complex embedded in PRL-1

B1: PRL-1: recombinant wild-type human PRL-1 protein containing the C-terminal NCC motif (protein, UniProt Q93096 1-170, looked up)
Protein tyrosine phosphatase …: MARMNRPAPVEVTYKNMRFLITHNPTNATLNKFIEELKKYGVTTIVRVCEATYDTTLVEKEGIHVLDWPFDDGAPPSNQIVDDWLSLVKIKFREEPGCCIAVHCVAGLGRAPVLVALALIEGGMKYEDAVQFIRQKRRGAFNSKQLLYLEKYRPKMRLRFKDSNGHRNNC
Ni bound (ICP-MS) [2]: approximately 120 μM
Ni content (ICP-MS) ([2]; on average 500 μM Ni-purified protein, nitric acid digest 16 h at 70° C.): approximately 180 μM
loss of peaks at 318, 421 and 526 nm (Ni release) ([3]; 5.6 M guanidinium hydrochloride at 90° C.): only gradually disappear over 6 hrs
effect of 10 mM imidazole on absorption profile ([3]; Ni-purified): no effect
effect of ten million-fold exchange into 100 μM EDTA on spectrum ([3]; Ni-purified): little effect
effect of 20 mM BME on absorption profile ([3]; Ni-purified, pH 7.4): did not alter
reversibility of Ni binding ([3]; pH 7.4): irreversible
Zn detected (ICP-MS) ([4]; Ni-purified samples): approximately 60 μM
Zn present (ICP-MS) ([4]; purified using Zn-IMAC): 270 µM

B2: PRL-1-H166A: PRL-1 mutant with His166 of the NGH motif replaced by Ala (protein, UniProt Q93096 1-170, looked up, variant H166A)
Protein tyrosine phosphatase …: B1 Protein tyrosine phosphatase … with H166A
Ni bound (ICP-MS) [2]: ~60 µM
decrease in signal by absorption spectroscopy ([1]; relative to wild-type PRL-1, Ni-purified): 20%

B3: Apo PRL-1: PRL-1 protein without bound metal (protein, UniProt Q93096 1-170, looked up)
Protein tyrosine phosphatase …: B1 Protein tyrosine phosphatase …
modifications: apo form, no bound metal
solubility [5]: poorly soluble

B4: C170S: PRL-1 mutant with Cys170 replaced by Ser (protein, UniProt Q93096 1-170, looked up, variant C170S)
Protein tyrosine phosphatase …: B1 Protein tyrosine phosphatase … with C170S
Ni bound (ICP-MS) [2]: No Ni was detected
